From the DeepSol protein solubility set

Experiment: soluble on expression in E. coli; label from the status in PepcDB or PDB records

Sequence	soluble on expression in E. coli
MNVYRNQLIQLLPEITELKNLTTLDLSLNKLTQLPPEIGELNNLKTLYSSSNQLTQLPLEITKLKNLTELYLSSNLMIRLPLEITELKNLTTLNVYRNQLIQLPSKITELKNLKKLDLSRNQLAQLPPEIAELKNLTTLDLSRNQLAQLPPEIAELKNLTTLDLFENPLISLEHHHHHH	not soluble
MHATDQTFQILLSQLLEKVEDRCPECGSEQYVWQQKNKDGTERCAPTCWSCGYKMLKKHEQQANQQRSQESFMARTQKFFHQGSLIADDALRQCRLTNYQTTELETRQAKERALAAVSAIVEGKPIHVIFSGKPGVGKSHLAISILVEVLERSAYQKYCLFVSYSELLEKLKMSMNESAKSQAKAQAYITRMKKADVLVLDDLGAELGIKNKVSTDFNNDILNRILEARQNKATIFTTNFSGKQLVEAYGTRIISRLMKHANGYVFQYKDTTDKRMRSVKLEHHHHHH	not soluble
MNNGYSPTSSNQQNVSVEHDIIMRGRRIIDITGVKQVESFDSEEFLLETVMGFLTIRGQNLQMKNLDVEKGIVSIKGKVNEMLYIDENQGEKTKGFFSKLFKLEHHHHHH	not soluble
SRVLMEQPGYAQMRKLILFQQYQFEPLFVRQKVGFDIDSVTQSTADALYITPSNQYPMGTTLNTEQRAQIIEWASNQEAWILEDDYDSEFQFAHRPYTSLQGLAAQMGRDERVLYIGSFSKVMFNGLRLGYLVVPESLVDKCLMVKDALSGDTPSHIQAAMADFISEGSLLRHIRKMRRVYKSKHEQVCFSIQHYFGDKVRVISQAAGLHVTLSWQQGIDENTWTQRAKKAGIVMRPVSFYEHPDFKARDWQGVVIGYGNVRLDNIDPLIKRLFELFDV	not soluble
MARIKLIDETTDLSQVRRPIGWDLEVNGVPYDVYRIDGYNHTLGGKFSENCYWACPAGKKPTYKNLIEFNGDAPTWGIVFDRSNYTKTKWDETSVECNGICWITRNGKKFYSIPARYMDYGLAKAQYILVKLLEECPLWLSERNWKEKAIGRKIWYENQPAKIIRINEENELWIEPDGIPVFKAPAHWDHDDYSDYENGLRVDLLSPNIYWFRD	not soluble
AIAAQKISEAHEHIAKAEKYLKTSFMKWKPDYDSAASEYAKAAVAFKNAKQLEQAKDAYLQEAEAHANNRSLFHAAKAFEQAGMMLKDLQRMPEAVQYIEKASVMYVENGTPDTAAMALDRAGKLMEPLDLSKAVHLYQQAAAVFENEERLRQAAELIGKASRLLVRQQKFDEAAASLQKEKSMYKEMENYPTCYKKCIAQVLVQLHRADYVAAQKCVRESYSIPGFSGSEDCAALEDLLQAYDEQDEEQLLRVCRSPLVTYMDNDYAKLAISLKVPGGGGGKKKPSASASAQPQEEEDDEYAGGLC	soluble
MGSDKIHHHHHHMAKVVTLTATNGETIQFVEEVKAQGGMKDVMFSPNRDYVVAFLRDPADNETKERLEMITGQYRKRIFNQEGGEYLKKLYCWPTAVVEYNGKLGVVSPFYRDCFFFQYGSRNSDMLGIQGKEKDGKWFASANNRNKFLAPEELGDWMLHLKVCLMLARAVRRMHMAGLSHSDLGYKNCLIDPTTGQACLIDIDGLVVPGKHPPTVVGTPDFIAPEVVATSHLDVKDPNRKLPSRTTDLHALAVLIYMYLLYRHPLRGDKVFDPNDPQRDEELGMGKQALFVEHPTDRSNRIKTENIRPSEHPWKDTEKMPYTLTGTYLSDLFKRAFIDGLHNPQARPTADEWEQALVKTVDLLQPCSNASCEQKWYAFDNSKHPKCPFCGTAHHGKLPVLNLYSGTPDGKFRPDNHRIMVYSNQSLFKWHADNRVFPNEKLRSEDAKRVGYFVQHNGNWWLVNEALPEIYDVKAKQAIPIGGKVKLDDGGQILLQKGIGGRLLMVQMAG	not soluble
MVILMRAPIVEVFSSIQGEGLLVGRRQIFVRFAGCNLNCSYCDTPESRDPSAGRLFTAPELTEIIEGLITPDFHSISITGGEPLLYPDFITELLEESPHRTLLETNGSLPSNAERIAHLFDYASVDIKIAEHFSDNLRSGTTESDISSPGDLIDREIQVINILISRGVNTYCKVVVMPTTGAGYIGALAERLLECVDEPERLPLVIQPCSPPEQWAQNTPRLLEMSQEAGKYMDVYVIPQMHRALGLR	soluble
MGSDKIHHHHHHMRDLLNDLSEGLSHPDPILRAQIQMQKPLPKRFYKDVTVADVEEGGFTILLDGKPLRTPAKKPLVAPSRALADLLRDEWDAQKEVVNPVVMPVSRHVNTAIDGIASDTQAVFEDILRFSSSDLLCYRAGDPEALVARQTDYWDPVLDWATNVLGARFILVEGVMHRDQPREAIAAFAVTLKKYDTPIALAALHTMTSLTGSAILALALAEGELTLEEAWALAHLDEDWTAEQWGEDEEALERRAVRLIDMRAALNVLESLKSAS	not soluble
TESGTAAQDPEALAAEIGPVKQVSLGEQIDAALAQQGEQLFNTYCTACHRLDERFIGPALRDVTKRRGPVYIMNVMLNPNGMIQRHPVMKQLVQEYGTMMTDMALSEEQARAILEYLRQVAENQ	soluble
SAGRGKLIAVIGDEDTVTGFLLGGIGELNKNRHPNFLVVEKDTTINEIEDTFRQFLNRDDIGIILINQYIAEMVRHALDAHQRSIPAVLEIPSKEHPYDAAKDSILRRAKGMFTAEDLR	soluble
MGSDKIHHHHHHMSSHHETSENVVIKQADFIESVADALQYISYYHPKDFVDAMSEAYEREQSAAAKDAIAQILINSRMSAEGKRPLCQDTGIVTTFVKVGMGVKWDKTDMTIQQMVDEGVRRAYTNPDNPLRASIVADPAGSRKNTKDNTPSVVHIDMVPGNHVEVAIAAKGGGSENKAKMVMLNPSDDIAAWVEKTLPTMGAGWCPPGMLGIGIGGTAEKAAVLAKEALMESVDIHELMARGAQTTEEKLRLDIFERANNLGIGAQGLGGLTTVLDVKIKSAPTHAASKPVVMIPNCAATRHVHFHLDGTGPADLAPPSLSDWPEITREVGSDVRRVNLDTVTQADIEQWQSGETLLLSGKMLTGRDAAHKRIQSLIESGEGLPEGVDFTGKFIYYVGPVDPVGNEVVGPAGPTTATRMDKFTDLMLDKTGLMGMIGKAERGPATVESIKKHKAVYLMAVGGAAYLVSKAIKKSRVVAFADLGMEAIYEFDVQDMPVTVAVDSNGVNAHETGPAIWKVNIANANAKA	not soluble
MNKNKPFIVVIVGPTASGKTELSIELAKRINGEIISGDSMQVYKHMNIGTAKVTPEEMDGIPHHLIDILNPDDTFSAYEFKRLAEDLITDITNRGKVPIIAGGTGLYIQSLIYNYELEDETVTPAQLSIVKQKLSALEHLDNQQLHDYLAQFDAVSAENIHPNNRQRVLRAIEYYLKTKKLLSNRKKVQQFTENYDTLLLGIEMSRKTLYSRINKRVDIMLDHGLFREVQQLVEQGYESCQSMQAIGYKELIPVINGQMIYEDAVNDLKQHSRQYAKRQMTWFKNKMSVHWLDKENMSLQMMLDEITTQIKMAGDPLEHHHHHH	not soluble
LGKFSQTCYNSAIQGSVLTSTCERTNGGYNTSSIDLNSVIAAVDGSLKWPSNFIEACRNTQLAGSSELAAECKTAAGQFVSTKINLDDHIANIDGTLKYE	soluble
MSLEENDFDAIYIGNSKSMIKDYRGFVFTMRELREKFPNAVLITDLEPFFYPLAVYLGIDAFDIRSLKIYSYEGLGFTQFSPIIWDEPKEDPVEYAKKIIRLIRIAIHEGKLRYLVENFLPTSMNAGILRIADRENIEYLEKYTPVDDKTVVFISDYSMTRPEVYRWAKRVRERFEPPKDIELLLILPCSAKKPYSRSRSHTLYRSAVKEALGEKMHRVHELIVTSPYGVVPREWEWIAKYDIVVTGHWSEREVRLAGELLADVLEKYPDIPIIAHVEGGYREAVKLAMELSGRDVIFTAKGNSTTSRESLANLTKTLKEFDVRDVDKEYRRYRFYENIRKIFDFYFGLNAGYAVLPERAQVVGSKMLRLIVDNQQTGTFQEGVISVTPWGMQRIYDELHSYWVEIDFDVRGDIFAAGVGSADEKIRPNDWVGVVRDGKVVAVGRAVLSGEEMVKAKRGVAVKVKKKAKEGHHHHHH	not soluble
MHHHHHHSSGVDLGTENLYFQSMGEVVMSQAIQPAHATARGELSAGQLLKWIDTTACLAAEKHAGVSCVTASVDDIQFEETARVGQVITIKAKVTRAFSTSMEISIKVMVQDMLTGIEKLVSVAFSTFVAKPVGKEKIHLKPVTLLTEQDHVEHNLAAERRKVRLQHEDTFNNLMKESSKFDDLIFDEEEGAVSTRGTSVQSIELVLPPHANHHGNTFGGQIMAWMETVATISASRLCWAHPFLKSVDMFKFRGPSTVGDRLVFTAIVNNTFQTCVEVGVRVEAFDCQEWAEGRGRHINSAFLIYNAADDKENLITFPRIQPISKDDFRRYRG	soluble
SLIKNEHVKKCDTWPSGGEMVVKDLTVKYVDDGNAILENICFSISPGQRVGLLGRTGSGKSTLLSAFLRMLNIKGEIQIDGVSWNSMTLEEWRKAFGVITQKVFIFSGTFRQNLDPNGKWRDEEIWKVADQVGLKSVIEQFPGQLNFTLVDGGYVLSHGHKQLMCLARSVLSKAKIILLDEPSANLDPITYQVIRRVLRQAFAGCTVVLCEARIEAMLDCDRFLVIEQGNVWQYESLQALLSEKSDFQRALSSSE	soluble
MKAKITGEDDVRVGLHVTDNNGVKHKIEMEFNGEIKYHNQDGYPDKPKNRTPNGNAHVNQTCRYARYHVYQETEYTPLPPEENLPGIKKVKQAIADLSVKEFEAYFSDTYDQVLSNHPSVTPPVPHPESVPQNGYILYLIDVYLDDNDEIEAVSDIHLQYLDENGDKTQDWNDDPFPDRQPDARLQLFGKYVPSMDVFQEFVVYHLRCQLRDVYIGAGLEPPEKYRVLGRGDDDLTSRYHNDKVTIYDDYHLEEADIPGYELEFDYGFGELGKQSVINAKRKGIGAENPDDADSRLANPSQDGEEGLLETVSSVLRGSDTDQTET	not soluble
MDGLDYFEPNPDYRVAATVEVDDSDETITMETTAEGERLYERVARLTFEVPDASDNRDEHTLVAYQRVDQRGDGSLFVPFRDKTTGQQTYPAGRYMELHYEGDLEDGATVPLDFNLAYNPFCAYSDAYECPLPPQENWLEIVVPAGERDDQLEHHHHHH	soluble
GSMAGEDVGAPPDHLWVHQEGIYRDEYQRTWVAVVEEETSFLRARVQQIQVPLGDAARPSHLLTSQLPLMWQLYPEERYMDNNSRLWQIQHHLMVRGVQELLLKLLPDDRSPGIHRD	soluble
MEPLSHRGLPRLSWIDTLYSNFSYGTDEYDGEGNEEQKGPPEGSETMPYIDESPTMSPQLSARSQGGGDGVSPTPPEGLAPGVEAGKGLEMRKLVLSGFLASEEIYINQLEALLLPMKPLKATATTSQPVLTIQQIETIFYKIQDIYEIHKEFYDNLCPKVQQWDSQVTMGHLFQKLASQLGVYKAFVDNYKVALETAEKCSQSNNQFQKISEELKVKGPKDSKDSHTSVTMEALLYKPIDRVTRSTLVLHDLLKHTPVDHPDYPLLQDALRISQNFLSSINEDIDPRRTAVTTPKGETRQLVKDGFLVEVSESSRKLRHVFLFTDVLLCAKLKKTSAGKHQQYDCKWYIPLADLVFPSPEESEASPQVHPFPDHELEDMKMKISALKSEIQKEKANKGQSRAIERLKKKMFENEFLLLLNSPTIPFRIHNRNGKSYLFLLSSDYERSEWREAIQKLQKKDLQAFVLSSVELQVLTGSCFKLRTVHNIPVTSNKDDDESPGLYGFLHVIVHSAKGFKQSANLYCTLEVDSFGYFVSKAKTRVFRDTAEPKWDEEFEIELEGSQSLRILCYEKCYDKTKVNKDNNEIVDKIMGKGQIQLDPQTVETKNWHTDVIEMNGIKVEFSMKFTSRDMSLKRTPSKKQTGVFGVKISVVTKRERSKVPYIVRQCVEEVEKRGIEEVGIYRISGVATDIQALKAVFDANNKDILLMLSDMDINAIAGTLKLYFRELPEPLLTDRLYPAFMEGIALSDPAAKENCMMHLLRSLPDPNLITFLFLLEHLKRVAEKEPINKMSLHNLATVFGPTLLRPSEVESKAHLTSAADIWSHDVMAQVQVLLYYLQHPPISFAELKRNTLYFSTDV	soluble
